Data published in the Human Domainome abundance scans (Beltran et al. 2025).

B1: Chromodomain-helicase-DNA-binding protein 4, residues 365 to 417; numbered along this chain, Q14839 (parent)
chain: YETDHQDYCEVCQQGGEIILCDTCPRAYHMVCLDPDMEKAPEGKWSCPHCEKE

Variants of: B1
Assay: abundance fitness (aPCA) (normalised: wild type 0, dead -1); higher = more abundant; growth selection in yeast, the domain comes from the species named
Details: Homo sapiens

Abundance fitness: each site, then its substitutions
Y8: L 0.031 | T 0.221 | H 0.481 | E -0.109
E38: S -0.266 | Y -0.093 | D -0.074 | V -0.063 | R -0.029 | K -0.244 | N -0.183 | H -0.079 | T -0.657
P41: C -0.212 | M -0.06 | A 0.117 | Q -0.109 | E 0.07 | S -0.046 | Y 0.022 | G 0.151
C24: D -0.647 | E -0.822 | P -0.652 | G -0.695 | S -0.681 | N -0.401
D7: G 0 | Y -0.003 | A -0.095 | H -0.51 | V -0.19 | P -0.29 | Q 0.119 | T 0.067 | W -0.346
K52: D -0.39 | R -0.106 | H 0.286 | V -0.176 | S 0.161 | C -0.105 | G -0.204
C9: Y -1.02 | D -0.777 | R -0.678 | E -0.943 | T -0.791
D4: E 0.1 | T -0.168 | L -0.003 | H 0.304 | Q 0.114 | G 0.008 | S -0.127
Y1: F 0.069 | L -0.316 | N -0.028 | D -0.863
Y28: I -0.295 | K -0.267 | S -0.271 | H 0.023
H5: V 0.208 | T 0.349 | M 0.41 | D -0.801 | Q -0.111 | P 0.19
E2: Q 0.654 | C 0.484 | G 0.102 | S 0.425 | W 0.297 | P 0.263 | H 0.347 | K 0.077
E17: T -0.033 | Q -0.135 | K -0.153 | Y -0.055 | I -0.199 | D -0.109
D34: C 0.018 | K -0.314 | N -0.091 | W 0.009 | A -0.07 | R -0.145
Q13: F -0.063 | G 0.037 | V -0.018 | T -0.015 | A 0.206 | W -0.255 | N 0.255 | H -0.135
E53: R -0.04 | H -0.378 | S -0.023 | A -0.207 | L -0.133 | T -0.717 | C -0.263 | V -0.356
Q6: S 0.026 | H -0.359 | A -0.269 | W -0.347 | P -0.161
G43: E 0.179 | A 0.061 | T -0.272 | V -0.375 | N -0.076 | R -0.09 | I -0.382 | D -0.164
I18: W -0.218 | V -0.161 | E 0.046 | K -0.305 | D -0.058 | P -0.369 | Y -0.231 | H -0.408 | S -0.081
L33: G -0.195 | A 0.123 | Q -0.114 | F 0.022 | N -0.547 | T 0.162 | Y -0.025
G15: A -0.028 | M -0.028 | C -0.524 | N -0.328 | K -0.033 | Y -0.571 | S -0.013
P35: C -0.1 | S 0.125 | L -0.191 | G 0.038 | N -0.023 | E -0.345 | K -0.374 | W -0.236
C21: Y -0.765 | N -0.983 | L -1.06 | M -0.911 | E -0.893 | K -0.734 | D -0.657
E10: S 0.035 | I 0.204 | F -0.015 | P -0.157 | W 0.015 | N -0.182 | T -0.093 | C -0.26
A40: M 0.043 | L 0.095 | I 0.464
